Assay in all cases: single-filament TIRF microscopy of microtubule growth
The target of experiment [1] is recombinant α/βIIB tubulin heterodimer (human) (UniProt P68363).
The target of experiment [2] is recombinant α/βIIB-tail-III tubulin heterodimer (human) (UniProt P68363).
For experiment [3], the target named is recombinant α/βIII-tail-IIB tubulin heterodimer (human) (UniProt P68363).

With “recombinant α/βIIB tubulin heterodimer (from UniProt P68363-1 1-451; Q9BVA1 1-445) (complex)”, in experiment [1], the koff came out at 2.6 s⁻¹ and the kon amounted to 1.9e+06 M⁻¹ s⁻¹.

Turning to “recombinant α/βIIB-tail-III tubulin heterodimer (from UniProt P68363-1 1-451; Q9BVA1 1-427; Q13509 428-450) (complex)”, in experiment [2], the koff is 5.5 s⁻¹ and the association rate constant (kon) was 2e+06 M⁻¹ s⁻¹.

With “recombinant α/βIII-tail-IIB tubulin heterodimer (from UniProt P68363-1 1-451; Q13509 1-427; Q9BVA1 428-445) (complex)”, in experiment [3], the koff turned out to be 2.4 s⁻¹ and the kon was determined as 1.8e+06 M⁻¹ s⁻¹.

Usually koff stands for a measure of how fast the partners let go of each other. A word on the kon: it is the second-order rate constant of association.

The values are drawn from paper PMC4878094.
